19 molecules from patent US20240209076A1 (KODIAK SCIENCES, published 2024) can be followed below.

The chains are these.
B1: anti-IL-6 antibody, light chain I47V (heavy chain WT) (antibody, V domains shown)
VH: EVQLVESGGGLVQPGGSLRLSCAASGFTFSPFAMSWVRQAPGKGLEWVAKISPGGSWTYYSDTVTGRFTFSLDTSKSTAYLQMNSLRAEDTAVYYCARQLWGYYALDIWGQGTLVTVSS
VL: DIQLTQSPSSLSASVGDRVTITCSASISVSYMYWYQQKPGKAPKLLVYDMSNLASGVPSRFSGSGSGTDFTLTISSLQPEDFATYYCMQWSGYPYTFGQGTKVEIK
notes: See note of m2; also called WT / 147V
B2: anti-IL-6 antibody, light chain L46V (heavy chain WT) (antibody, V domains shown)
VH: EVQLVESGGGLVQPGGSLRLSCAASGFTFSPFAMSWVRQAPGKGLEWVAKISPGGSWTYYSDTVTGRFTFSLDTSKSTAYLQMNSLRAEDTAVYYCARQLWGYYALDIWGQGTLVTVSS
VL: DIQLTQSPSSLSASVGDRVTITCSASISVSYMYWYQQKPGKAPKLVIYDMSNLASGVPSRFSGSGSGTDFTLTISSLQPEDFATYYCMQWSGYPYTFGQGTKVEIK
notes: See note of m2; also called WT / L46V
B3: anti-IL-6 antibody, light chain L53W (heavy chain WT) (antibody, V domains shown)
VH: EVQLVESGGGLVQPGGSLRLSCAASGFTFSPFAMSWVRQAPGKGLEWVAKISPGGSWTYYSDTVTGRFTFSLDTSKSTAYLQMNSLRAEDTAVYYCARQLWGYYALDIWGQGTLVTVSS
VL: DIQLTQSPSSLSASVGDRVTITCSASISVSYMYWYQQKPGKAPKLLIYDMSNWASGVPSRFSGSGSGTDFTLTISSLQPEDFATYYCMQWSGYPYTFGQGTKVEIK
notes: See note of m2; also called WT / L53W
B4: anti-IL-6 antibody, light chain A54Y (heavy chain WT) (antibody, V domains shown)
VH: EVQLVESGGGLVQPGGSLRLSCAASGFTFSPFAMSWVRQAPGKGLEWVAKISPGGSWTYYSDTVTGRFTFSLDTSKSTAYLQMNSLRAEDTAVYYCARQLWGYYALDIWGQGTLVTVSS
VL: DIQLTQSPSSLSASVGDRVTITCSASISVSYMYWYQQKPGKAPKLLIYDMSNLYSGVPSRFSGSGSGTDFTLTISSLQPEDFATYYCMQWSGYPYTFGQGTKVEIK
notes: See note of m2; also called WT / A54Y
B5: anti-IL-6 antibody, light chain N52S (heavy chain WT) (antibody, V domains shown)
VH: EVQLVESGGGLVQPGGSLRLSCAASGFTFSPFAMSWVRQAPGKGLEWVAKISPGGSWTYYSDTVTGRFTFSLDTSKSTAYLQMNSLRAEDTAVYYCARQLWGYYALDIWGQGTLVTVSS
VL: DIQLTQSPSSLSASVGDRVTITCSASISVSYMYWYQQKPGKAPKLLIYDMSSLASGVPSRFSGSGSGTDFTLTISSLQPEDFATYYCMQWSGYPYTFGQGTKVEIK
notes: See note of m2; also called WT / N52S
B6: anti-IL-6 antibody, light chain L53R (heavy chain WT) (antibody, V domains shown)
VH: EVQLVESGGGLVQPGGSLRLSCAASGFTFSPFAMSWVRQAPGKGLEWVAKISPGGSWTYYSDTVTGRFTFSLDTSKSTAYLQMNSLRAEDTAVYYCARQLWGYYALDIWGQGTLVTVSS
VL: DIQLTQSPSSLSASVGDRVTITCSASISVSYMYWYQQKPGKAPKLLIYDMSNRASGVPSRFSGSGSGTDFTLTISSLQPEDFATYYCMQWSGYPYTFGQGTKVEIK
notes: See note of m2; also called WT / L53R
B7: anti-IL-6 antibody, light chain L53H (heavy chain WT) (antibody, V domains shown)
VH: EVQLVESGGGLVQPGGSLRLSCAASGFTFSPFAMSWVRQAPGKGLEWVAKISPGGSWTYYSDTVTGRFTFSLDTSKSTAYLQMNSLRAEDTAVYYCARQLWGYYALDIWGQGTLVTVSS
VL: DIQLTQSPSSLSASVGDRVTITCSASISVSYMYWYQQKPGKAPKLLIYDMSNHASGVPSRFSGSGSGTDFTLTISSLQPEDFATYYCMQWSGYPYTFGQGTKVEIK
notes: See note of m2; also called WT / L53H
B8: anti-IL-6 antibody, light chain A54G (heavy chain WT) (antibody, V domains shown)
VH: EVQLVESGGGLVQPGGSLRLSCAASGFTFSPFAMSWVRQAPGKGLEWVAKISPGGSWTYYSDTVTGRFTFSLDTSKSTAYLQMNSLRAEDTAVYYCARQLWGYYALDIWGQGTLVTVSS
VL: DIQLTQSPSSLSASVGDRVTITCSASISVSYMYWYQQKPGKAPKLLIYDMSNLGSGVPSRFSGSGSGTDFTLTISSLQPEDFATYYCMQWSGYPYTFGQGTKVEIK
notes: See note of m2; also called WT / A54G
B9: anti-IL-6 antibody, light chain Q89A (heavy chain WT) (antibody, V domains shown)
VH: EVQLVESGGGLVQPGGSLRLSCAASGFTFSPFAMSWVRQAPGKGLEWVAKISPGGSWTYYSDTVTGRFTFSLDTSKSTAYLQMNSLRAEDTAVYYCARQLWGYYALDIWGQGTLVTVSS
VL: DIQLTQSPSSLSASVGDRVTITCSASISVSYMYWYQQKPGKAPKLLIYDMSNLASGVPSRFSGSGSGTDFTLTISSLQPEDFATYYCMAWSGYPYTFGQGTKVEIK
notes: See note of m2; also called WT / Q89A
B10: anti-IL-6 antibody, light chain A54L (heavy chain WT) (antibody, V domains shown)
VH: EVQLVESGGGLVQPGGSLRLSCAASGFTFSPFAMSWVRQAPGKGLEWVAKISPGGSWTYYSDTVTGRFTFSLDTSKSTAYLQMNSLRAEDTAVYYCARQLWGYYALDIWGQGTLVTVSS
VL: DIQLTQSPSSLSASVGDRVTITCSASISVSYMYWYQQKPGKAPKLLIYDMSNLLSGVPSRFSGSGSGTDFTLTISSLQPEDFATYYCMQWSGYPYTFGQGTKVEIK
notes: See note of m2; also called WT / A54L
B11: anti-IL-6 antibody, light chain Q89S (heavy chain WT) (antibody, V domains shown)
VH: EVQLVESGGGLVQPGGSLRLSCAASGFTFSPFAMSWVRQAPGKGLEWVAKISPGGSWTYYSDTVTGRFTFSLDTSKSTAYLQMNSLRAEDTAVYYCARQLWGYYALDIWGQGTLVTVSS
VL: DIQLTQSPSSLSASVGDRVTITCSASISVSYMYWYQQKPGKAPKLLIYDMSNLASGVPSRFSGSGSGTDFTLTISSLQPEDFATYYCMSWSGYPYTFGQGTKVEIK
notes: See note of m2; also called WT / Q89S
B12: anti-IL-6 Fab, heavy chain Q99A (Fab, V domains shown)
VH: EVQLVESGGGLVQPGGSLRLSCAASGFTFSPFAMSWVRQAPGKGLEWVAKISPGGSWTYYSDTVTGRFTFSLDTSKSTAYLQMNSLRAEDTAVYYCARALWGYYALDIWGQGTLVTVSS
VL: DIQLTQSPSSLSASVGDRVTITCSASISVSYMYWYQQKPGKAPKLLIYDMSNLASGVPSRFSGSGSGTDFTLTISSLQPEDFATYYCMQWSGYPYTFGQGTKVEIK
B13: anti-IL-6 Fab, heavy chain A105Q (Fab, V domains shown)
VH: EVQLVESGGGLVQPGGSLRLSCAASGFTFSPFAMSWVRQAPGKGLEWVAKISPGGSWTYYSDTVTGRFTFSLDTSKSTAYLQMNSLRAEDTAVYYCARQLWGYYQLDIWGQGTLVTVSS
VL: DIQLTQSPSSLSASVGDRVTITCSASISVSYMYWYQQKPGKAPKLLIYDMSNLASGVPSRFSGSGSGTDFTLTISSLQPEDFATYYCMQWSGYPYTFGQGTKVEIK
B14: anti-IL-6 Fab, heavy chain Q99H (Fab, V domains shown)
VH: EVQLVESGGGLVQPGGSLRLSCAASGFTFSPFAMSWVRQAPGKGLEWVAKISPGGSWTYYSDTVTGRFTFSLDTSKSTAYLQMNSLRAEDTAVYYCARHLWGYYALDIWGQGTLVTVSS
VL: DIQLTQSPSSLSASVGDRVTITCSASISVSYMYWYQQKPGKAPKLLIYDMSNLASGVPSRFSGSGSGTDFTLTISSLQPEDFATYYCMQWSGYPYTFGQGTKVEIK
B15: anti-IL-6 Fab, heavy chain L100K (Fab, V domains shown)
VH: EVQLVESGGGLVQPGGSLRLSCAASGFTFSPFAMSWVRQAPGKGLEWVAKISPGGSWTYYSDTVTGRFTFSLDTSKSTAYLQMNSLRAEDTAVYYCARQKWGYYALDIWGQGTLVTVSS
VL: DIQLTQSPSSLSASVGDRVTITCSASISVSYMYWYQQKPGKAPKLLIYDMSNLASGVPSRFSGSGSGTDFTLTISSLQPEDFATYYCMQWSGYPYTFGQGTKVEIK
B16: anti-IL-6 Fab, heavy chain G102D (Fab, V domains shown)
VH: EVQLVESGGGLVQPGGSLRLSCAASGFTFSPFAMSWVRQAPGKGLEWVAKISPGGSWTYYSDTVTGRFTFSLDTSKSTAYLQMNSLRAEDTAVYYCARQLWDYYALDIWGQGTLVTVSS
VL: DIQLTQSPSSLSASVGDRVTITCSASISVSYMYWYQQKPGKAPKLLIYDMSNLASGVPSRFSGSGSGTDFTLTISSLQPEDFATYYCMQWSGYPYTFGQGTKVEIK
B17: anti-IL-6 Fab, heavy chain Y103E (Fab, V domains shown)
VH: EVQLVESGGGLVQPGGSLRLSCAASGFTFSPFAMSWVRQAPGKGLEWVAKISPGGSWTYYSDTVTGRFTFSLDTSKSTAYLQMNSLRAEDTAVYYCARQLWGEYALDIWGQGTLVTVSS
VL: DIQLTQSPSSLSASVGDRVTITCSASISVSYMYWYQQKPGKAPKLLIYDMSNLASGVPSRFSGSGSGTDFTLTISSLQPEDFATYYCMQWSGYPYTFGQGTKVEIK
B18: anti-IL-6 Fab, heavy chain I108E (Fab, V domains shown)
VH: EVQLVESGGGLVQPGGSLRLSCAASGFTFSPFAMSWVRQAPGKGLEWVAKISPGGSWTYYSDTVTGRFTFSLDTSKSTAYLQMNSLRAEDTAVYYCARQLWGYYALDEWGQGTLVTVSS
VL: DIQLTQSPSSLSASVGDRVTITCSASISVSYMYWYQQKPGKAPKLLIYDMSNLASGVPSRFSGSGSGTDFTLTISSLQPEDFATYYCMQWSGYPYTFGQGTKVEIK
B19: anti-IL-6 Fab, heavy chain D107E (Fab, V domains shown)
VH: EVQLVESGGGLVQPGGSLRLSCAASGFTFSPFAMSWVRQAPGKGLEWVAKISPGGSWTYYSDTVTGRFTFSLDTSKSTAYLQMNSLRAEDTAVYYCARQLWGYYALEIWGQGTLVTVSS
VL: DIQLTQSPSSLSASVGDRVTITCSASISVSYMYWYQQKPGKAPKLLIYDMSNLASGVPSRFSGSGSGTDFTLTISSLQPEDFATYYCMQWSGYPYTFGQGTKVEIK

The first experiment has as its target T1, recombinant human IL-6 (human, UniProt P05231 30-212).
T1 construct: Bought protein
The experiment can be described thus: SPR Biacore, supernatant Ab on Protein A chip, IL-6 analyte, 25 C. Here is the method:
Antibodies were captured on a Protein A chip (GE) by injecting 1:20 dilution of cell supernatant at 10 μL/min for 60 seconds. […] The sensor chip was regenerated by a 60 seconds injection of 10 mM Glycine pH 1.7 at flow rate of 50 μL/min. […] For this setup, 1 μg/mL of purified antibody was injected over a Protein A chip at 10 μL/min for 25-28 seconds. Data analysis for supernatant and purified samples were performed using BIAevaluation software (GE). All sensorgrams were double reference subtracted and fit using a 1:1 Langmuir binding model.
A general note: Surface plasmon resonance follows binding to a sensor surface in real time, without labels.
T1 sequence (P05231 30-212 limits assumed): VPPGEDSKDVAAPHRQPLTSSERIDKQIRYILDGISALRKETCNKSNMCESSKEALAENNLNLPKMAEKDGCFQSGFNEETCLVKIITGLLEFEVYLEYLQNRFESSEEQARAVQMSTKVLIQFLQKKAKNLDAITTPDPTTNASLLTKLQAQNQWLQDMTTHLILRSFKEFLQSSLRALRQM
Take B1: the Kd (commonly the free concentration of one partner at which half of the binding sites on the other are occupied at equilibrium, for simple one-to-one binding) amounted to 414 pM; the koff (as a rule, a measure of how fast the partners let go of each other) came out at 0.000195 s⁻¹; the kon (in general, the rate constant with which the complex forms) amounted to 471000 M⁻¹ s⁻¹.
For the molecule B2, the Kd was 442 pM, the koff worked out at 0.000203 s⁻¹ and the kon is 460000 M⁻¹ s⁻¹.
Turning to B3, the Kd came out at 5.18 pM, the koff came to 6.14e-06 s⁻¹ and the kon came out at 1.19e+06 M⁻¹ s⁻¹.
For B4, in that order: 168 pM, 0.000109 s⁻¹ and 652000 M⁻¹ s⁻¹.
Turning to B5, the Kd came to 353 pM, the koff came out at 0.000152 s⁻¹ and the kon came to 430000 M⁻¹ s⁻¹.
Taken in the same sequence, the figures for B6 were 446 pM, 0.000185 s⁻¹ and 416000 M⁻¹ s⁻¹.
In the case of B7, the Kd amounted to 401 pM, the koff came out at 0.000218 s⁻¹ and the on-rate (kon) was 544000 M⁻¹ s⁻¹.
For B8, in that order: 416 pM, 0.000198 s⁻¹ and 475000 M⁻¹ s⁻¹.
On to B9, for which the Kd was found to be 419 pM, the koff stood at 0.000227 s⁻¹ and the kon was 543000 M⁻¹ s⁻¹.
On to B10, for which the Kd turned out to be 499 pM, the koff is 0.00021 s⁻¹ and the kon stood at 420000 M⁻¹ s⁻¹.
Consider B11, for which the Kd was determined as 752 pM, the koff worked out at 0.000272 s⁻¹ and the kon stood at 362000 M⁻¹ s⁻¹.

For the next experiment, the target named is recombinant human IL-6 (human, UniProt P05231 30-212). The experiment is described as follows: SPR, IL-6 on CM5 chip, Fab lysate, 25 C.
Target sequence in this assay (P05231 30-212 limits assumed): as above
As for B12, the koff worked out at 0.00388 s⁻¹.
Take B13: the koff amounted to 0.00401 s⁻¹.
As to B14, the koff turned out to be 0.00441 s⁻¹.
Turning to B15, the koff is 0.00287 s⁻¹.
For the molecule B16, the koff came out at 0.00389 s⁻¹.
B17: the koff was 0.00512 s⁻¹.
On to B18, for which the koff is 0.00308 s⁻¹.
As for B19, the koff is 0.00438 s⁻¹.
